Test results published in patent US20080182978A1, “ANTI-NGF ANTIBODIES AND METHODS USING SAME” (RINAT NEUROSCIENCE CORP, priority 2002, published 2008).
Entries after “also recorded” stand apart in the source; their conditions may differ.

Legend:
[1] = test system: post-surgical resting pain (paw incision); experiment: Post-surgical pain model, cumulative resting pain score; assay type: in vivo, rat
[2] = test system: moderate to severe pain from osteoarthritis of the knee; experiment: Clinical study, osteoarthritis of the knee: index knee pain VAS, PID/SPID; assay type: in vivo, human
Description: Adult males and females (ages between 35 to 65) who were experiencing moderate-to-severe pain from osteoarthritis of the knee, but were in otherwise overall good health were enrolled in the study. During the screening period, patients were required to discontinue arthritis medications such as NSAIDs, cyclooxygenase type-2 (COX-2) inhibitors, and opiates at least 14 days prior to administration of anti-NGF antibody E3. Patients were allowed to use rescue medications of acetaminophen or ibuprofen with some restrictions based on laboratory findings or past medical history. Some patients took rescue medications during the study, but rescue medications were not consumed for 2 days before and after administration of anti-NGF antibody E3. Thirty-four patients were admitted to the study and assessed as inpatients for on Study Days -1, 1 and 2. Anti-NGF antibody E3 administration occurred on the morning of Day 1. Electronic diaries were used to record index knee pain and rescue medication usage in clinic and at home. Ten patients were treated with placebo. Twenty-four patients were treated with anti-NGF antibody E3: four patients per dose level for 3 μg/kg (cohort 1), 10 μg/kg (cohort 2), and 30 μg/kg (cohort 3); and six patients per dose level for 100 μg/kg (cohort 4) and 300 μg/kg (cohort 5). The placebo used was sterile 0.9% Sodium Chloride Injection, USP (normal saline). Anti-NGF antibody E3 was a frozen liquid formulation consisting of 10 mg/ml antibody in an aqueous solution of 10 mM histidine, 275 mM sucrose, 0.01% polysorbate 20, pH 6.0. One hour prior to IV administration, frozen antibody was thawed and diluted into Sodium Chloride Injection, USP. The volume for each patient was calculated based on the subject's Day -1 weight and assigned dose level, ranging from 3-6 cc for cohort 1, 10-20 cc for cohort 2, 30-60 cc for cohort 3, and 100 cc for cohort 4 and cohort 5. For cohorts 1 and 2, antibody E3 was administered by a slow IV bolus over 3 to 5 minutes, followed with an IV flush of 5 cc Sodium Chloride Injection, USP. For cohorts 3-5, antibody E3 was administered at 100 cc/hour via infusion pump, followed with an IV flush of 5 cc Sodium Chloride Injection, USP and discontinuation of the IV. Within each cohort, the placebo (Sodium Chloride Injection, USP) was administered by slow bolus or continuous infusion in the same fashion as the antibody E3. After two in-patient days, patients were discharged home. […] Periodic safety assessments was performed for 181 days in all patients. Analgesic effects were assessed before dosing and at multiple times after administration of antibody E3. […] Patients were cued 4 times daily and instructed to indicate the level of arthritis pain in the index knee at that moment. […] VAS for index knee pain during walking was completed daily, concurrent with the fourth current index knee pain VAS. Electronic diary for data collection was issued on day -8 and a 7-day screening assessment of electronic diary compliance was performed from day -8 to day -2 to determine success in using the electronic diaries for a given subject. Subjects were instructed to complete 4 diaries per day. The mean VAS recorded during the screening period is used as baseline for assessment of efficacy. Outcome was assessed as change from baseline (pain level during screening period), expressed as pain intensity difference (PID) or summed pain intensity difference (SPID) for different dose levels. Changes from baseline in the activity measurements were analyzed using an analysis of covariance (ANCOVA) model with treatment as the main factor and baseline pain as a covariate. For means and mean changes, comparisons of antibody E3 with placebo was made using Dunnett'[…] was used to assess the dose-response relationship.

[3] = biological target: macrophage stimulating protein (MSP) (Homo sapiens, UniProt P26927); experiment: Mouse E17/18 trigeminal neuron survival assay, MSP; assay type: cell-based; conditions: MSP 600 pM; antibody up to 200 nM; 48 hours
Chain of macrophage stimulating protein (MSP) (P26927 19-711, species assumed): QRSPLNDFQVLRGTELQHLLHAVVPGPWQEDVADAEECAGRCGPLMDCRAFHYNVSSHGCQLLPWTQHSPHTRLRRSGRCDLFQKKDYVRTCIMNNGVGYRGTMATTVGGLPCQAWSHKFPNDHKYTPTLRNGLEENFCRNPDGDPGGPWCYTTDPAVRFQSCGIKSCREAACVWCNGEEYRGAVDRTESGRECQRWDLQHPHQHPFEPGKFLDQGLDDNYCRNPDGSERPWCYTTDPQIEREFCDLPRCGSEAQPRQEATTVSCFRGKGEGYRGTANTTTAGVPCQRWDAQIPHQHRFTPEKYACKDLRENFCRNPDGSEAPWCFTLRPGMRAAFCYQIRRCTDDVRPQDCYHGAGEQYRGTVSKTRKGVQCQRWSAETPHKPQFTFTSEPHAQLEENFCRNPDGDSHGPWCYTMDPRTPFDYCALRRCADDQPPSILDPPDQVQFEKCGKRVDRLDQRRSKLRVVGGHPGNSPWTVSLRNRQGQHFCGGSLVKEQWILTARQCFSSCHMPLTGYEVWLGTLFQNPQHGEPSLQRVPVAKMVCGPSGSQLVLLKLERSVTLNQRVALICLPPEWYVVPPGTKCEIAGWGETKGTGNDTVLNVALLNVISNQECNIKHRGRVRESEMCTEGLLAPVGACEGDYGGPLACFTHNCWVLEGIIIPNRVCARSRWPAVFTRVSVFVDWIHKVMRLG
Description: The ability of antibody E3 to specifically block NGF activity was evaluated by measurement of the capacity of the antibody to inhibit survival of mouse E17/18 trigeminal neurons in vitro in the presence of saturating concentrations of NGF, the NGF-related neurotrophin NT3, or the NGF-unrelated neurotrophic factor, macrophage stimulating protein (MSP). The survival of mouse E17/18 trigeminal neurons is a sensitive assay to evaluate the NGF-blocking activity of anti-NGF antagonist antibodies because NGF is required to support survival of these neurons at higher concentrations than the level of NGF required to support survival of E13.5 TG neurons).
The survival assay was conducted as follows: time mated pregnant Swiss Webster female mice were euthanised by CO2 inhalation. The uterine horns were removed and the embryos (at embryonic day 17 or 18) were extracted and decapitated. The trigeminal and nodose ganglia were dissected and cleaned. The ganglia were then trypsinised, mechanically dissociated and plated at a density of 100-300 cells per well in defined, serum-free medium in 4-well plates (Greiner) coated with poly-L-ornithine and laminin.
E17/18 trigeminal neurons were grown either without added neurotrophic factors (negative control) or in the presence of saturating concentrations of human NGF (400 pM and 15 pM) (positive control); NT3 (400 pM); or MSP (600 pM). […]

B1: E3: humanized, affinity matured anti-NGF antagonist antibody; variable regions SEQ ID NO:1 and 2; human IgG2a (A330P331 to S330S331), kappa (antibody, V domains shown)
VH: QVQLQESGPGLVKPSETLSLTCTVSGFSLIGYDLNWIRQPPGKGLEWIGIIWGDGTTDYNSAVKSRVTISKDTSKNQFSLKLSSVTAADTAVYYCARGGYWYATSYYFDYWGQGTLVTVS
VL: DIQMTQSPSSLSASVGDRVTITCRASQSISNNLNWYQQKPGKAPKLLIYYTSRFHSGVPSRFSGSGSGTDFTFTISSLQPEDIATYYCQQEHTLPYTFGQGTKLEIKRT
modifications: human IgG2a constant (A330S/P331S) and kappa constant missing
[1]; 0.5 mg/kg i.v. two hours after surgery, assessed 24 hours after surgery
  resting pain (cumulative pain score): effectively alleviated post-surgical pain; also recorded: reduced resting pain
[1]; 0.02 to 1 mg/kg i.p. 15 hours pre-incision, 24 hours after surgery, vs saline
  resting pain (cumulative pain score): significantly reduced resting pain
[2]; All E3 doses, Days 2-8
  Summed pain intensity differences (SPID) as compared to baseline: −713
[2]; All E3 doses, Days 2-14
  Summed pain intensity differences (SPID) as compared to baseline: −1269
[2]; All E3 doses, Days 2-21
  Summed pain intensity differences (SPID) as compared to baseline: −1752
[2]; All E3 doses, Days 2-28
  Summed pain intensity differences (SPID) as compared to baseline: −2254
[2]; E3 3 μg/kg single administration, Days 2-8
  Summed pain intensity differences (SPID) as compared to baseline: −572
[2]; E3 3 μg/kg single administration, Days 2-14
  Summed pain intensity differences (SPID) as compared to baseline: −956
[2]; E3 3 μg/kg single administration, Days 2-21
  Summed pain intensity differences (SPID) as compared to baseline: −1048
[2]; E3 3 μg/kg single administration, Days 2-28
  Summed pain intensity differences (SPID) as compared to baseline: −1067
[2]; E3 10 μg/kg single administration, Days 2-8
  Summed pain intensity differences (SPID) as compared to baseline: −671
[2]; E3 10 μg/kg single administration, Days 2-14
  Summed pain intensity differences (SPID) as compared to baseline: −1174
[2]; E3 10 μg/kg single administration, Days 2-21
  Summed pain intensity differences (SPID) as compared to baseline: −1623
[2]; E3 10 μg/kg single administration, Days 2-28
  Summed pain intensity differences (SPID) as compared to baseline: −2020
[2]; E3 30 μg/kg single administration, Days 2-8
  Summed pain intensity differences (SPID) as compared to baseline: −733
[2]; E3 30 μg/kg single administration, Days 2-14
  Summed pain intensity differences (SPID) as compared to baseline: −1371
[2]; E3 30 μg/kg single administration, Days 2-21
  Summed pain intensity differences (SPID) as compared to baseline: −2042
[2]; E3 30 μg/kg single administration, Days 2-28
  Summed pain intensity differences (SPID) as compared to baseline: −2566
[2]; E3 100 μg/kg single administration, Days 2-8
  Summed pain intensity differences (SPID) as compared to baseline: −766
[2]; E3 100 μg/kg single administration, Days 2-14
  Summed pain intensity differences (SPID) as compared to baseline: −1403
[2]; E3 100 μg/kg single administration, Days 2-21
  Summed pain intensity differences (SPID) as compared to baseline: −1996
[2]; E3 100 μg/kg single administration, Days 2-28
  Summed pain intensity differences (SPID) as compared to baseline: −2726
[2]; E3 300 μg/kg single administration, Days 2-8
  Summed pain intensity differences (SPID) as compared to baseline: −769
[2]; E3 300 μg/kg single administration, Days 2-14
  Summed pain intensity differences (SPID) as compared to baseline: −1340
[2]; E3 300 μg/kg single administration, Days 2-21
  Summed pain intensity differences (SPID) as compared to baseline: −1869
[2]; E3 300 μg/kg single administration, Days 2-28
  Summed pain intensity differences (SPID) as compared to baseline: −2521
[2]; single administration, p<0.05
  summed pain intensity differences (SPID) vs baseline, ANCOVA: pain reduction was statistically significant
[2]; single i.v. dose 3, 10, 30, 100 or 300 μg/kg, every dose tested
  mean daily pain intensity (VAS) vs baseline: decrease of mean daily pain intensity
[2]; single i.v. dose of 100 μg/kg
  duration of pain intensity reduction / pain relief: at least 80 days
[3]
  survival of E17/18 trigeminal neurons promoted by MSP: had no effect; also recorded: did not inhibit
